# Experimental data reported in PMC9482650, “Quantitative fragmentomics allow affinity mapping of interactomes” (Nature Communications, 2022).
# Target: T1, ARHGEF11, O15085
# T1 sequence (O15085 42-136, limits assumed, looked up): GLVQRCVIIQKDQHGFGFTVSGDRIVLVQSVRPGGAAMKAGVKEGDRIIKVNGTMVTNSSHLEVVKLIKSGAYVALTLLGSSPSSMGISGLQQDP
# Experiment: holdup assay
# Parameters: key: below the threshold = too weak to quantify, mostly under pKd 3.1 to 4
# Details: plain residues with an end cap or a label only (N-terminal biotin on a linker: ado-ado)
row,Binder,pKd
1,"TGLWKHETTV [ADGRA3, Q8IWK6]",4.31
2,"QLSFNTDTLC [ABCA2, Q9BZC7]",below the threshold

# Target: T2, CARD11, Q9BXL7
# T2 sequence (Q9BXL7 662-765, limits assumed, looked up): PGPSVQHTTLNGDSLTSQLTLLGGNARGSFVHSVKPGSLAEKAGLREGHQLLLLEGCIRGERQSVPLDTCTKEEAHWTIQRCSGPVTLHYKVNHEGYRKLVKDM
# Experiment: holdup assay
# Parameters: key: below the threshold = too weak to quantify, mostly under pKd 3.1 to 4
# Details: plain residues with an end cap or a label only (N-terminal biotin on a linker: ado-ado)
row,Binder,pKd
1,"TGLWKHETTV [ADGRA3, Q8IWK6]",below the threshold
2,"QLSFNTDTLC [ABCA2, Q9BZC7]",below the threshold

# Target: DLG5_1, Q8TDM6
# Experiment: holdup assay
# Parameters: key: below the threshold = too weak to quantify, mostly under pKd 3.1 to 4
# Details: plain residues with an end cap or a label only (N-terminal biotin on a linker: ado-ado)
# DLG5_1, Q8TDM6, sequence (Q8TDM6 617-713): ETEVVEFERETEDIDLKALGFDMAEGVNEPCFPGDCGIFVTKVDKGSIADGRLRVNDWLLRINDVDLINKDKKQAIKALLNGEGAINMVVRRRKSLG
row,Binder,pKd
1,"TGLWKHETTV [ADGRA3, Q8IWK6]",below the threshold
2,"QLSFNTDTLC [ABCA2, Q9BZC7]",below the threshold

# Target: T3, DVL3, Q92997
# T3 sequence (Q92997 244-331, limits assumed, looked up): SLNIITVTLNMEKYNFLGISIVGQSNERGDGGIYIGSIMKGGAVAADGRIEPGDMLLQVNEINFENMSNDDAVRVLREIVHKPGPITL
# Experiment: holdup assay
# Parameters: key: below the threshold = too weak to quantify, mostly under pKd 3.1 to 4
# Details: plain residues with an end cap or a label only (N-terminal biotin on a linker: ado-ado)
row,Binder,pKd
1,"TGLWKHETTV [ADGRA3, Q8IWK6]",below the threshold
2,"QLSFNTDTLC [ABCA2, Q9BZC7]",below the threshold

# Target: T4, FRMPD1, Q5SYB0
# T4 sequence (Q5SYB0 52-145, limits assumed, looked up): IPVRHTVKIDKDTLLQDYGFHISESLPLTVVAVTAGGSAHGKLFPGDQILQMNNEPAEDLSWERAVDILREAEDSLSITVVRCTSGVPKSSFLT
# Experiment: holdup assay
# Parameters: key: below the threshold = too weak to quantify, mostly under pKd 3.1 to 4
# Details: plain residues with an end cap or a label only (N-terminal biotin on a linker: ado-ado)
row,Binder,pKd
1,"TGLWKHETTV [ADGRA3, Q8IWK6]",below the threshold
2,"QLSFNTDTLC [ABCA2, Q9BZC7]",below the threshold

# Target: GORASP1, Q9BQQ3
# Experiment: holdup assay
# Parameters: key: below the threshold = too weak to quantify, mostly under pKd 3.1 to 4
# Details: plain residues with an end cap or a label only (N-terminal biotin on a linker: ado-ado)
# GORASP1, Q9BQQ3, sequence (Q9BQQ3 1-208): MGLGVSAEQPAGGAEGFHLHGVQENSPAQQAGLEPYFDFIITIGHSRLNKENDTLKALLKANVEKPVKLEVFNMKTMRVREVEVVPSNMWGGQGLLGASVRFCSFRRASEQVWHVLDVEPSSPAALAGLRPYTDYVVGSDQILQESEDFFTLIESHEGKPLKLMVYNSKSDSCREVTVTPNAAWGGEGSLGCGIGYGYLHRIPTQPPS
row,Binder,pKd
1,"TGLWKHETTV [ADGRA3, Q8IWK6]",below the threshold
2,"QLSFNTDTLC [ABCA2, Q9BZC7]",below the threshold

# Target: GRID2IP_2, A4D2P6
# Experiment: holdup assay
# Parameters: key: below the threshold = too weak to quantify, mostly under pKd 3.1 to 4
# Details: plain residues with an end cap or a label only (N-terminal biotin on a linker: ado-ado)
# GRID2IP_2, A4D2P6, sequence (A4D2P6 272-370): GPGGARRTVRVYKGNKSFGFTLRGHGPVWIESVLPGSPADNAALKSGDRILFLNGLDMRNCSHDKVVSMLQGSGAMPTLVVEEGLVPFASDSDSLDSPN
row,Binder,pKd
1,"TGLWKHETTV [ADGRA3, Q8IWK6]",below the threshold
2,"QLSFNTDTLC [ABCA2, Q9BZC7]",below the threshold

# Target: T5, GRIP1_4, Q9Y3R0
# T5 sequence (Q9Y3R0 467-571, limits assumed, looked up): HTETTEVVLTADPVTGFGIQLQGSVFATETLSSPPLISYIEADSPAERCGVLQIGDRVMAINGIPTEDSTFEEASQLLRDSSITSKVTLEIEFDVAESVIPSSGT
# Experiment: holdup assay
# Parameters: key: below the threshold = too weak to quantify, mostly under pKd 3.1 to 4
# Details: plain residues with an end cap or a label only (N-terminal biotin on a linker: ado-ado)
row,Binder,pKd
1,"TGLWKHETTV [ADGRA3, Q8IWK6]",below the threshold
2,"QLSFNTDTLC [ABCA2, Q9BZC7]",below the threshold

# Target: GRIP2_3, Q9C0E4
# Experiment: holdup assay
# Parameters: key: below the threshold = too weak to quantify, mostly under pKd 3.1 to 4
# Details: plain residues with an end cap or a label only (N-terminal biotin on a linker: ado-ado)
# GRIP2_3, Q9C0E4, sequence (Q9C0E4 238-339): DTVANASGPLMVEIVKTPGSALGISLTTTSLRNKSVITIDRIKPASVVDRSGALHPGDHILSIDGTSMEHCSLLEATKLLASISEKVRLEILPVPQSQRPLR
row,Binder,pKd
1,"TGLWKHETTV [ADGRA3, Q8IWK6]",below the threshold
2,"QLSFNTDTLC [ABCA2, Q9BZC7]",below the threshold

# Target: GRIP2_6, Q9C0E4
# Experiment: holdup assay
# Parameters: key: below the threshold = too weak to quantify, mostly under pKd 3.1 to 4
# Details: plain residues with an end cap or a label only (N-terminal biotin on a linker: ado-ado)
# GRIP2_6, Q9C0E4, sequence (Q9C0E4 648-740): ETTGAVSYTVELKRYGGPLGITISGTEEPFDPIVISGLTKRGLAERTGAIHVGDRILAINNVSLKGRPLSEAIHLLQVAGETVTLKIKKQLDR
row,Binder,pKd
1,"TGLWKHETTV [ADGRA3, Q8IWK6]",3.55
2,"QLSFNTDTLC [ABCA2, Q9BZC7]",below the threshold

# Target: T6, HTRA4, P83105
# T6 sequence (P83105 378-476, limits assumed, looked up): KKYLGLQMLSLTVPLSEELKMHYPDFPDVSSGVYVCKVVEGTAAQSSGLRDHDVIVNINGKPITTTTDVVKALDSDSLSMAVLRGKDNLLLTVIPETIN
# Experiment: holdup assay
# Parameters: key: below the threshold = too weak to quantify, mostly under pKd 3.1 to 4
# Details: plain residues with an end cap or a label only (N-terminal biotin on a linker: ado-ado)
row,Binder,pKd
1,"TGLWKHETTV [ADGRA3, Q8IWK6]",4.15
2,"QLSFNTDTLC [ABCA2, Q9BZC7]",below the threshold

# Target: Inadl_3, Q8NI35
# Experiment: holdup assay
# Parameters: key: below the threshold = too weak to quantify, mostly under pKd 3.1 to 4
# Details: plain residues with an end cap or a label only (N-terminal biotin on a linker: ado-ado)
# Inadl_3, Q8NI35, sequence (Q8NI35 359-469): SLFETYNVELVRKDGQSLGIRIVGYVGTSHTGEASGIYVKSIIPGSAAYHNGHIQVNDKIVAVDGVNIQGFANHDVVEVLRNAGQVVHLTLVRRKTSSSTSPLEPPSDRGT
row,Binder,pKd
1,"TGLWKHETTV [ADGRA3, Q8IWK6]",3.86
2,"QLSFNTDTLC [ABCA2, Q9BZC7]",below the threshold

# Target: LIMK2, P53671
# Experiment: holdup assay
# Parameters: key: below the threshold = too weak to quantify, mostly under pKd 3.1 to 4
# Details: plain residues with an end cap or a label only (N-terminal biotin on a linker: ado-ado)
# LIMK2, P53671, sequence (P53671 143-248): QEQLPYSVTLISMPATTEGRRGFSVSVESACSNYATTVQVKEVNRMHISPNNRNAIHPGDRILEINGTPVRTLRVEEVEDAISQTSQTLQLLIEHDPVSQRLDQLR
row,Binder,pKd
1,"TGLWKHETTV [ADGRA3, Q8IWK6]",below the threshold
2,"QLSFNTDTLC [ABCA2, Q9BZC7]",below the threshold

# Target: LNX1_3, Q8TBB1
# Experiment: holdup assay
# Parameters: key: below the threshold = too weak to quantify, mostly under pKd 3.1 to 4
# Details: plain residues with an end cap or a label only (N-terminal biotin on a linker: ado-ado)
# LNX1_3, Q8TBB1, sequence (Q8TBB1 500-596): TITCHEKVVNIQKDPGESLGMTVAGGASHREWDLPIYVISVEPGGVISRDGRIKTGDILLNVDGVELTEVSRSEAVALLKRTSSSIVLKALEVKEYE
row,Binder,pKd
1,"TGLWKHETTV [ADGRA3, Q8IWK6]",below the threshold
2,"QLSFNTDTLC [ABCA2, Q9BZC7]",below the threshold

# Target: T7, LNX2_2, Q8N448
# T7 sequence (Q8N448 334-432, limits assumed, looked up): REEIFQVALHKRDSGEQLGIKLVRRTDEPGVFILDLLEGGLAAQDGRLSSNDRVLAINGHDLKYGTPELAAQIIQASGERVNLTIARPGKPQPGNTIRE
# Experiment: holdup assay
# Parameters: key: below the threshold = too weak to quantify, mostly under pKd 3.1 to 4
# Details: plain residues with an end cap or a label only (N-terminal biotin on a linker: ado-ado)
row,Binder,pKd
1,"TGLWKHETTV [ADGRA3, Q8IWK6]",4.93
2,"QLSFNTDTLC [ABCA2, Q9BZC7]",3.78

# Target: T8, LNX2_3, Q8N448
# T8 sequence (Q8N448 463-564, limits assumed, looked up): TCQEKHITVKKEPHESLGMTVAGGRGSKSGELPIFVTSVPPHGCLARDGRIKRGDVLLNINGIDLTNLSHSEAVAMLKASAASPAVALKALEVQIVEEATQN
# Experiment: holdup assay
# Parameters: key: below the threshold = too weak to quantify, mostly under pKd 3.1 to 4
# Details: plain residues with an end cap or a label only (N-terminal biotin on a linker: ado-ado)
row,Binder,pKd
1,"TGLWKHETTV [ADGRA3, Q8IWK6]",below the threshold
2,"QLSFNTDTLC [ABCA2, Q9BZC7]",below the threshold

# Target: MAGI1_2, Q96QZ7
# Experiment: holdup assay
# Parameters: key: below the threshold = too weak to quantify, mostly under pKd 3.1 to 4
# Details: plain residues with an end cap or a label only (N-terminal biotin on a linker: ado-ado)
# MAGI1_2, Q96QZ7, sequence (Q96QZ7 456-580): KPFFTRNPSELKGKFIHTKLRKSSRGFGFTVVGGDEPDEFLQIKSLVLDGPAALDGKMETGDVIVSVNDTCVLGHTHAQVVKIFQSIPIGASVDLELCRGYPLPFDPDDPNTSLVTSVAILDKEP
row,Binder,pKd
1,"TGLWKHETTV [ADGRA3, Q8IWK6]",4.91
2,"QLSFNTDTLC [ABCA2, Q9BZC7]",below the threshold

# Target: MAGI2_5, Q86UL8
# Experiment: holdup assay
# Parameters: key: below the threshold = too weak to quantify, mostly under pKd 3.1 to 4
# Details: plain residues with an end cap or a label only (N-terminal biotin on a linker: ado-ado)
# MAGI2_5, Q86UL8, sequence (Q86UL8 915-1017): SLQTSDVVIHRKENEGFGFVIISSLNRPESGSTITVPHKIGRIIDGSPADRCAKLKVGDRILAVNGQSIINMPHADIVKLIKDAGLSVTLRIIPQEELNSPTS
row,Binder,pKd
1,"TGLWKHETTV [ADGRA3, Q8IWK6]",4.41
2,"QLSFNTDTLC [ABCA2, Q9BZC7]",3.73

# Target: NHERF4_2, Q86UT5
# Experiment: holdup assay
# Parameters: key: below the threshold = too weak to quantify, mostly under pKd 3.1 to 4
# Details: plain residues with an end cap or a label only (N-terminal biotin on a linker: ado-ado)
# NHERF4_2, Q86UT5, sequence (Q86UT5 220-308): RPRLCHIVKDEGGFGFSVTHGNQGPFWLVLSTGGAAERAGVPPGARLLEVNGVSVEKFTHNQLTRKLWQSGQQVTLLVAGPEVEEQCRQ
row,Binder,pKd
1,"TGLWKHETTV [ADGRA3, Q8IWK6]",below the threshold
2,"QLSFNTDTLC [ABCA2, Q9BZC7]",below the threshold

# Target: NOS1, P29475
# Experiment: holdup assay
# Parameters: key: below the threshold = too weak to quantify, mostly under pKd 3.1 to 4
# Details: plain residues with an end cap or a label only (N-terminal biotin on a linker: ado-ado)
# NOS1, P29475, sequence (P29475 9-101): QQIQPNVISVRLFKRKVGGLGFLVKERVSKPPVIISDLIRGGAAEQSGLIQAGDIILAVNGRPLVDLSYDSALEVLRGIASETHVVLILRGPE
row,Binder,pKd
1,"TGLWKHETTV [ADGRA3, Q8IWK6]",below the threshold
2,"QLSFNTDTLC [ABCA2, Q9BZC7]",3.65

# Target: PARD3_3, Q8TEW0
# Experiment: holdup assay
# Parameters: key: below the threshold = too weak to quantify, mostly under pKd 3.1 to 4
# Details: plain residues with an end cap or a label only (N-terminal biotin on a linker: ado-ado)
# PARD3_3, Q8TEW0, sequence (Q8TEW0 582-685): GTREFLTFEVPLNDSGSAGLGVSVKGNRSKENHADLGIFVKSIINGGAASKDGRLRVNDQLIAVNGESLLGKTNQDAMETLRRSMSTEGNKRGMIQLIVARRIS
row,Binder,pKd
1,"TGLWKHETTV [ADGRA3, Q8IWK6]",3.54
2,"QLSFNTDTLC [ABCA2, Q9BZC7]",below the threshold

# Target: T9, PDZD2_2, O15018
# T9 sequence (O15018 329-429, limits assumed, looked up): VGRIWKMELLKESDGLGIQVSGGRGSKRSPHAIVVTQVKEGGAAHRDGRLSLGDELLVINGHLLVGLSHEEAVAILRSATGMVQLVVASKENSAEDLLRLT
# Experiment: holdup assay
# Parameters: key: below the threshold = too weak to quantify, mostly under pKd 3.1 to 4
# Details: plain residues with an end cap or a label only (N-terminal biotin on a linker: ado-ado)
row,Binder,pKd
1,"TGLWKHETTV [ADGRA3, Q8IWK6]",4.2
2,"QLSFNTDTLC [ABCA2, Q9BZC7]",below the threshold

# Target: T10, PDZRN3_1, Q9UPQ7
# T10 sequence (Q9UPQ7 244-349, limits assumed, looked up): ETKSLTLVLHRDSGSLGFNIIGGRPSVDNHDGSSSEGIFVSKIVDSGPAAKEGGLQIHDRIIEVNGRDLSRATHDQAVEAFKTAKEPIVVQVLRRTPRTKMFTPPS
# Experiment: holdup assay
# Parameters: key: below the threshold = too weak to quantify, mostly under pKd 3.1 to 4
# Details: plain residues with an end cap or a label only (N-terminal biotin on a linker: ado-ado)
row,Binder,pKd
1,"TGLWKHETTV [ADGRA3, Q8IWK6]",4.25
2,"QLSFNTDTLC [ABCA2, Q9BZC7]",below the threshold

# Target: T11, PTPN13_1, Q12923
# T11 sequence (Q12923 1088-1188, limits assumed, looked up): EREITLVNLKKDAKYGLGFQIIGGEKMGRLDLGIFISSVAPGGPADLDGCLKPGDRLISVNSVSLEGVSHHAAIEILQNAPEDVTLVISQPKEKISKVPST
# Experiment: holdup assay
# Parameters: key: below the threshold = too weak to quantify, mostly under pKd 3.1 to 4
# Details: plain residues with an end cap or a label only (N-terminal biotin on a linker: ado-ado)
row,Binder,pKd
1,"TGLWKHETTV [ADGRA3, Q8IWK6]",below the threshold
2,"QLSFNTDTLC [ABCA2, Q9BZC7]",below the threshold

# Target: T12, RAPGEF6, Q8TEU7
# T12 sequence (Q8TEU7 525-625, limits assumed, looked up): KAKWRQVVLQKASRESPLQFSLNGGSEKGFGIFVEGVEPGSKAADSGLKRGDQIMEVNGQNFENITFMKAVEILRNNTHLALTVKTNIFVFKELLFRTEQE
# Experiment: holdup assay
# Parameters: key: below the threshold = too weak to quantify, mostly under pKd 3.1 to 4
# Details: plain residues with an end cap or a label only (N-terminal biotin on a linker: ado-ado)
row,Binder,pKd
1,"TGLWKHETTV [ADGRA3, Q8IWK6]",below the threshold
2,"QLSFNTDTLC [ABCA2, Q9BZC7]",below the threshold

# Target: SNX27, Q96L92
# Experiment: holdup assay
# Parameters: key: below the threshold = too weak to quantify, mostly under pKd 3.1 to 4
# Details: plain residues with an end cap or a label only (N-terminal biotin on a linker: ado-ado)
row,Binder,pKd
1,"TGLWKHETTV [ADGRA3, Q8IWK6]",5.41
2,"QLSFNTDTLC [ABCA2, Q9BZC7]",4.17
